Results from patent US20100143368A1 (Bristol-Myers Squibb, published 2010).
Positions count from the first letter of the chain named. Names may count otherwise.

T1: full-length human CD22 expressed on the cell surface (human, UniProt P20273 20-847)
T1 construct: One molecule is used both for CHO transfectants with the full-length CD22 cDNA and for endogenous CD22 on Raji/Daudi cells; also called CHO-CD22; CHO cells transfected with full-length CD22
T1 sequence (looked up): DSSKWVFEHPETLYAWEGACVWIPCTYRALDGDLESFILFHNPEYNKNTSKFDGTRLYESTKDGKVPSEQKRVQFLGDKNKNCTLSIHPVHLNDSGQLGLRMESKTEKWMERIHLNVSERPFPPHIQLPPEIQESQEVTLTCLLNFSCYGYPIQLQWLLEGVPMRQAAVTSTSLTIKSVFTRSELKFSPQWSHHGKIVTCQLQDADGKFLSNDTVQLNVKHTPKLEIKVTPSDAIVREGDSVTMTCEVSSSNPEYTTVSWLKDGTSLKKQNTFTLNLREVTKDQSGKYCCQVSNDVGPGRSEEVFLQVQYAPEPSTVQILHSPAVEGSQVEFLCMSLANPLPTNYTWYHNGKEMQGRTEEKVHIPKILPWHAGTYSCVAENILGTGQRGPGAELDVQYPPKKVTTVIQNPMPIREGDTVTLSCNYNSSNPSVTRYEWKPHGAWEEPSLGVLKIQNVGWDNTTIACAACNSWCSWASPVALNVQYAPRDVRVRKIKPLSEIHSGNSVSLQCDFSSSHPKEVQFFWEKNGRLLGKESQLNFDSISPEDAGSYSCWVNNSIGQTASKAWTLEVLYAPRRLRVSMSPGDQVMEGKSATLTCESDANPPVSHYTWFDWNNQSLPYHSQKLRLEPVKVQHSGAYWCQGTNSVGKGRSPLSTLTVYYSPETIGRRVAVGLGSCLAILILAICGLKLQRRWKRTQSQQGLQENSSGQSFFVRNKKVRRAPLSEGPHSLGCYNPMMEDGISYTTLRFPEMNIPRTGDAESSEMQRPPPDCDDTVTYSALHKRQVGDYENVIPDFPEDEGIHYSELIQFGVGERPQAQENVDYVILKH

T2: recombinant human CD22 extracellular domain with C-terminal hexahistidine tag (human, UniProt P20273 20-687)
T2 construct: The whole entry is named here; also called CD22 ECD; CD22β extracellular domain
T2 sequence: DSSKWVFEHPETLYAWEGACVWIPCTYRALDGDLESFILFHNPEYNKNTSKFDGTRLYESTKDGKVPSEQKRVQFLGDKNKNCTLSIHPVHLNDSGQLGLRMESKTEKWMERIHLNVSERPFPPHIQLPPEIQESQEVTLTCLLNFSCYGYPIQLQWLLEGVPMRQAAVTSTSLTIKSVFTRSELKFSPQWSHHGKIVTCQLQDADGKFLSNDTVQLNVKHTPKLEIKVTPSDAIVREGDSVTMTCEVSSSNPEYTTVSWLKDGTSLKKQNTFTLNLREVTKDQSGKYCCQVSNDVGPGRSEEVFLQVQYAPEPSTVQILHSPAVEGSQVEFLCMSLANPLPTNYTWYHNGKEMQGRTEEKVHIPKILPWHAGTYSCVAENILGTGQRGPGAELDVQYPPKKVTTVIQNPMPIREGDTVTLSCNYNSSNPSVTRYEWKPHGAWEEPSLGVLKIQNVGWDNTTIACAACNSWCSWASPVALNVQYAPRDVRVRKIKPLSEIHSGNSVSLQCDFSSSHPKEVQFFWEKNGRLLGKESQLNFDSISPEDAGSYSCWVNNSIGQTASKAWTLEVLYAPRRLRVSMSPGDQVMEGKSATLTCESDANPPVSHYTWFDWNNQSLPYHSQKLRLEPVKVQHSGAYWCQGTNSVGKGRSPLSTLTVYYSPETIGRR

B1: recombinant human anti-CD22 monoclonal antibody CD22.1 (antibody, human IgG1, V domains shown)
VH: QVQLQQWGAGLLKPSETLSLTCAVYGRSFSSYYWSWIRQPPGKGLEWIGDINHSGSTNYNPSLKSRVTISVDTSKNQFSLKLSSVTAADTAVYYCAGTFYDILTGYYPLGYWGPGTLVTVSS
VL: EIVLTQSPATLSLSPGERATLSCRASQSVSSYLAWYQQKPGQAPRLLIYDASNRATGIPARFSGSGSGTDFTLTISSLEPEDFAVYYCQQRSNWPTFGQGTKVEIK
notes: also called 19A3 expressed in CHO cells (clone 8G9)
B2: anti-CD22 human monoclonal antibody 19A3 (antibody, IgG1, V domains shown)
VH: B1 VH
VL: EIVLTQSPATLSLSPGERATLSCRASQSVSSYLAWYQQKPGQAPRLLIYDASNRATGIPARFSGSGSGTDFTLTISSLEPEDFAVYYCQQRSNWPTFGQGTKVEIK
notes: Hybridoma-derived; also called parental antibody 19A3
B3: recombinant human anti-CD22 monoclonal antibody CD22.2 (antibody, human IgG1, V domains shown)
VH: B1 VH with N52Q
VL: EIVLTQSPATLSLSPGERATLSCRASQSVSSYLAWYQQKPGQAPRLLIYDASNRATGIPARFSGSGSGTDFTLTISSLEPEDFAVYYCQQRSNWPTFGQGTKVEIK
notes: Variant of 19A3 with N57Q, which removes the N-glycosylation site in VH CDR2; also called 19A3 VH N57Q variant (clone 17E11)
B4: anti-CD22 human monoclonal antibody 12C5 (antibody, IgG1, V domains shown)
VH: QVQLVQSGSELKKPGASVKVSCKASGYTFTSYAMNWVRQAPGQGLEWMGWINTNTGNPTYAQGFTGRFVFSLDTSVSTAYLQISSLKAEDTAVYYCARLFYYYFGMDVWGQGTTVTVSS
VL: QSALTQPASVSGSPGQSITISCTGTSSDVGSYNLVSWYQLHPGKAPKLMIYEVSKRPSGVSNRFSGSRSGNTASLTISGLQAEDEADYYCCSYANSSTLVFGGGTKLTVL
notes: Hybridoma-derived

Experiments:
[1] = target: T1, full-length human CD22 expressed on the …; assay: flow cytometry (FACS Array) on CHO cells transfected with full-length CD22, goat anti-human IgG-PE
[2] = target: T2, recombinant human CD22 extracellular …; assay: SPR (BIAcore 3000); CD22 ECD-His captured by anti-His mAb on CM5 chip, antibody injected at 20 µg/mL
Experimental: For determination of antibody affinity (KD), experiments were performed in which the CD22 antigen was captured on a BIAcore chip using an antibody to the His tag present on the antigen. Anti-His monoclonal antibody ab15149 (Abcam, Stock conc.0.5 mg/mL) was coated on a CM5 chip at high density (3500RUs), as recommended by the manufacturer. CD22 ECD (6.6 μg/mL) was captured on this surface for 60 sec at a flow-rate of 6 μL/min. A single concentration (20 μg/mL) of anti-CD22 purified mAbs was injected over the captured antigen with an association time of 5 minutes and a dissociation time of 8 minutes, at a flow rate of […]. The chip surface was regenerated after each cycle with 10 μL of 25 mM NaOH. Isotype controls were run on the chip and the data used to subtract non-specific binding. All experiments were carried out on a BIAcore 3000 surface plasmon resonance instrument, using BIAcore Control software v 3.2. Data analysis was carried out using BiaEvaluation v. 3.2 software.
Fourteen of the selected anti-CD22 antibodies were tested in the affinity experiment.

Binder	EC50 (read off the curve) [1] [µg/mL]	Kd [2] [nM]
B1	~0.3	
B2		0.15
B3	~0.3	
B4		0.23
